Molecular target: the molecule itself
Experiment: SEC-MALS

B1: Gemin5 TPR-like domain (residues 807-1097) (domain or fragment)
chain: TPVSSGFEKSKVTINNKVILLKKEPPKEKPETLIKKRKARSLLPLSTSLDHRSKEELHQDCLVLATAKHSRELNEDVSADVEERFHLGLFTDRATLYRMIDIEGKGHLENGHPELFHQLMLWKGDLKGVLQTAAERGELTDNLVAMAPAAGYHVWLWAVEAFAKQLCFQDQYVKAASHLLSIHKVYEAVELLKSNHFYREAIAIAKARLRPEDPVLKDLYLSWGTVLERDGHYAVAAKCYLGATCAYDAAKVLAKKGDAASLRTAAELAAIVGEDELSASLALRCAQELLL
stoichiometry N: 2
